The values below come from patent publication US10597674B2, “HPPD variants and methods of use” (BASF Agricultural Solutions Seed, US LLC, priority 2015, dated 2020).

Data set [1] deals with HPPD polypeptides (wild-type SEQ ID NO:1 and mutants). As to the method:
For the generation of crude HPPD polypeptide extract in micro titer plates (MTP) for the determination of residual activity in inhibition assays, cells were grown in 40 or 150 μl LB medium containing 1% Glucose (Merck, Darmstadt, Germany) and 100 μg/ml ampicillin in a standard 96 well plate (Thermo Fisher Scientific, Waltham, USA) incubated for about 18 h in a humidity incubator at 37° C.
30 μl of this starter culture were added to 600 μl LB medium containing 100 μg/ml ampicillin and 150 mM Hepes (Merck, Darmstadt, Germany) as inoculum for the expression culture in 96 well plates (2 ml deep wells; HJ Bioanalytik, Erkelenz, Germany) The plates were sealed by an aluminium foil, and cells were incubated for 5 h at 37° C. on a plate shaker at 750 rpm. The expression was induced by addition of IPTG in a final concentration of 1 mM followed by further sealed incubation for about 18 h at 30° C. on a plate shaker at 750 rpm.
Cells were harvested by centrifugation at 4° C., 2500 g for 15 min discarding the supernatant. Cell pellets were stored at −80° C. and lysed in 250 μl 1× BugBuster® (Merck, Darmstadt, Germany) in 140 mM Tris (pH 7.8), with 1:25000 diluted BNase® (Qiagen, Hilden, Germany) by incubation of the resuspended cells for 30 min at 4° C. and 1000 rpm. Lysates were clarified by centrifugation for 15 min at 4° C., 2500 g, and 150 μl supernatant were transferred in standard 96 well plate (Thermo Fisher Scientific, Waltham, USA) for subsequent testing in quadruplets.
The activity of HPPD polypeptides was determined in absence or presence of HPPD inhibitors using the coupled HPPD activity assay (FIG. 1).
For the determination of the residual activity, the apparent kinetic constant (kapp) of the determined substrate conversion was measured as kinetic changes in absorbance at 320 nm in a coupled assay, in that homogentisate (HGA) formed by HPPD from HPP is directly converted into the well absorbing molecule maleylacetoacetate (MAA) by a second enzyme homogentisate dioxygenase (HGD), applied in excess uniformly in all assays (see FIG. 1). The measurements were performed in 384 micro titer plates (Greiner Bio-One GmbH, Frickenhausen, Germany) by plate readers (Tecan infinite M1000 or M1000PRO, Tecan, Männedorf, Switzerland). The kcat/kM ratio of an enzymatic activity is proportional to the apparent kinetic constant kapp and is proportional to kcat/kM*[E] ([E]=enzyme concentration). […] As both kapp measurements in the presence and absence of inhibitor were performed by use of the identical enzyme sample, crude or purified, and thereby at the same enzyme concentration, the enzyme concentration eliminates from the calculation of residual activity and the ratio of both kapp directly indicates the change of kM due to the inhibition.

For data set [2], the system named is transgenic soybean T0 events. Nature of the data set: Additional greenhouse trials of T0 soybean events, leaf damage score 0-100 as percentiles. The data set is classed as in vivo. To be noted: Cmpd. 1 300 g AI/ha, five days. From the text: In additional greenhouse trials, 21 to 94 independent T0 soybean events per construct containing an exemplary mutant HPPD polypeptide were sprayed with the HPPD inhibitor herbicide Cmpd. […] Five days after the application, the leaf damaged area due to the HPPD inhibitor herbicide is scored in a scale from 0 (no damage) to 100 (complete bleaching). Under those conditions, the wild-type plants were completely bleached and their damage scores were in the 95-100 range.
Table 9 presents the distribution of the HPPD inhibitor herbicide damage score data as percentile for exemplary mutant HPPD inhibitor herbicide tolerant polypeptides (SEQ ID NOs). The percentiles normalize ranks of the damage score from an individual plant in a population. […] The median is the 50th percentile. Half the values had higher damage scores; half had lower damage scores. […] The difference between the 75th and 25th percentile is called the interquartile range and a marker to quantify scattering in the population. All constructs had only one single cassette insertion in the soybean genome.
In Table 9, the constructs were ranked based on injury scores according to the 75th percentile, from smallest to highest score. All exemplary HPPD polypeptide variants are better in all percentile analyses than the prior art mutant HPPD polypeptide (WO2014/043435) corresponding to SEQ ID NO:2 in this invention. The scoring of the prior art mutant HPPD polypeptide (WO2014/043435) corresponding to SEQ ID NO:2 in this invention is listed in the bottom row of Table 9.

[3] abbreviates: in the presence of Cmpd. 1, 15 μM inhibitor, high substrate concentration, kapp normalized to kapp without inhibitor.
[4] abbreviates: in the presence of Cmpd. 1, 15 μM inhibitor, high substrate concentration, total change in signal normalized to no inhibitor.
Where [5] appears, read: in the presence of Cmpd. 2, 15 μM inhibitor, high substrate concentration, kapp normalized to kapp without inhibitor.
The mark [6] stands for this setting: in the presence of Cmpd. 2, 15 μM inhibitor, high substrate concentration, total change in signal normalized to no inhibitor.
Where [7] appears, read: in the presence of diketonitrile (DKN), 60 μM inhibitor, high substrate concentration, kapp normalized to kapp without inhibitor.
[8] abbreviates: in the presence of diketonitrile (DKN), 60 μM inhibitor, high substrate concentration, total change in signal normalized to no inhibitor.
Where [9] appears, read: in the presence of mesotrione (MST), 60 μM inhibitor, high substrate concentration, kapp normalized to kapp without inhibitor.
The mark [10] stands for this setting: in the presence of mesotrione (MST), 60 μM inhibitor, high substrate concentration, total change in signal normalized to no inhibitor.
Setting [11] is: kapp in presence of 50 μM Cmpd. 1, normalised to kapp without inhibitor, low substrate concentration.
Setting [12] is: total change in signal in presence of 50 μM Cmpd. 1, normalised to that without inhibitor, low substrate concentration.

Changes are numbered by the printed parent chain. Names may count otherwise. Read-outs that look alike come from different tables or passages of the source.

With `CS(=O)(=O)c1ccc(C(=O)C2C(=O)CCCC2=O)c([N+](=O)[O-])c1` [mesotrione, 2-[4-(methylsulfonyl)-2-nitrobenzoyl]-1,3-cyclohexanedione, reference compound], the Residual activity turned out to be 9% in data set [1] (setting [3]), 16% in data set [1] (setting [5]), 17% in data set [1] (setting [7]) and 13% in data set [1] (setting [9]). For the same molecule, the Residual turnover in data set [1] (setting [4]) was 9%; in data set [1] (setting [6]) it was 22%; in data set [1] (setting [8]), 17%; in data set [1] (setting [10]) it was 17%.

B1: 16 (protein)
chain: MADLYENPMGLMGFEFIEFASPTPGTLEPIFEIMGFTKVATHRSKNVHLYRQGEINLILNNEPNSIASYFAAEHGPSVCGMAFRVKDSQKAYNRALELGAQPIHIDTGPMELNLPAIKGIGGAPLYLIDRFGEGSSIYDIDFVYLEGVERNPVGAGLKVIDHLTHNVYRGRMVYWANFYEKLFNFREARYFDIKGEYTGLTSKAMSAPDGMIRIPLNEESSKGAGQIEEFLMQFNGEGIQHVAFLTDDLVKTWDALKKIGMRFMTAPSDSYYEMLEGRLPDHGEPVDQLQARGILLDGSSVEGDKRLLLQIFSETLMGPVFFEFIQRKGDDGFGPDSFKVLFESKERDQVRRGVLTAD
modifications: mutant HPPD polypeptide
As for B1, the Residual activity was 45% in data set [1] (setting [3]), 94% in data set [1] (setting [5]), “n.i. (no inhibition was observed under the given conditions)” in data set [1] (setting [7]) and 88% in data set [1] (setting [9]). In addition, the Residual turnover in data set [1] (setting [4]) is recorded as 69%; in data set [1] (setting [6]) it was 94%; in data set [1] (setting [8]), “n.i”; in data set [1] (setting [10]), 92%.

B2: 8 (protein)
chain: B1 chain with S268P, S270T, K345I
modifications: mutant HPPD polypeptide
For the molecule B2, the Residual activity in data set [1] (setting [3]) was determined as 21%; in data set [1] (setting [5]) it was 67%; in data set [1] (setting [7]) it was 91%; in data set [1] (setting [9]), 70%. The Residual turnover in data set [1] (setting [4]) is 44%; in data set [1] (setting [6]), 74%; in data set [1] (setting [8]) it was 95%; in data set [1] (setting [10]), 85%.

B3: 36 (protein)
chain: B1 chain with M264R, S268G, S270E, D330H, K345M
modifications: mutant HPPD polypeptide
With B3, in data set [1] (setting [11]), the Residual activity was determined as 67%. In data set [1] (setting [12]), the Residual turnover is reported as 85%.

B4: 18 (protein)
chain: B1 chain with M264R, S268P, S270T, D330H, K345I
modifications: mutant HPPD polypeptide
For B4, the Residual activity is on record as 67% in data set [1] (setting [3]), “n.i. (no inhibition was observed under the given conditions)” in data set [1] (setting [5]) and “n.i. (no inhibition was observed under the given conditions)” in data set [1] (setting [7]). The Residual turnover in data set [1] (setting [4]) is on record as 79%; in data set [1] (setting [6]) it was “n.i”; in data set [1] (setting [8]), “n.i”.

B5: 60 (protein)
chain: B1 chain with M264R, S268G, S270E, D330H, S344Q, K345V
modifications: mutant HPPD polypeptide
In the case of B5, in data set [1] (setting [11]), the Residual activity came out at 64%. Further, the Residual turnover in data set [1] (setting [12]) was 84%.

B6: SEQ ID NO: 22: mutant HPPD polypeptide: E335P G336H N337S A340V (protein)
chain: B1 chain with S268P, S270T, D336H, K345I
modifications: mutant HPPD polypeptide
notes: mutant HPPD polypeptide: E335P G336H N337S A340V
Regarding B6, the “leaf damage score, Interquartile range” value in data set [2] (75th minus 25th percentile) is on record as 5.0. For the same molecule, the “leaf damage score, 25th percentile” value in data set [2] (scale 0 (no damage) to 100 (complete bleaching)) amounted to 10.0. For the same molecule, in data set [2] (scale 0-100), the “leaf damage score, 75th percentile” value was found to be 15.0; the “leaf damage score, 90th percentile” value was found to be 34.5; the “leaf damage score, Median” value stood at 10.0.

B7: 31 (protein)
chain: B1 chain with S268G, S270E, D336H, K345V
modifications: mutant HPPD polypeptide
As to B7, the Residual activity is recorded as 40% in data set [1] (setting [3]); 95% in data set [1] (setting [5]); “n.i. (no inhibition was observed under the given conditions)” in data set [1] (setting [7]); 83% in data set [1] (setting [9]); 50% in data set [1] (setting [11]). Further, the Residual turnover is 67% in data set [1] (setting [4]); “n.i” in data set [1] (setting [6]); “n.i” in data set [1] (setting [8]); “n.i” in data set [1] (setting [10]); 81% in data set [1] (setting [12]).

B8: 38 (protein)
chain: B1 chain with S268G, S270E, D330V, K345V
modifications: mutant HPPD polypeptide
Turning to B8, the Residual activity in data set [1] (setting [11]) is 78%. In data set [1] (setting [12]), the Residual turnover stood at 94%.

B9: 48 (protein)
chain: B1 chain with S268G, S270E, D331H, K345V
modifications: mutant HPPD polypeptide
As to B9, in data set [1] (setting [11]), the Residual activity is given as 47%. For the same molecule, the Residual turnover in data set [1] (setting [12]) is recorded as 74%.

B10: 33 (protein)
chain: B1 chain with S268G, S270E, V340R, K345V
modifications: mutant HPPD polypeptide
On to B10, for which the Residual activity in data set [1] (setting [11]) amounted to 40%. For the same molecule, the Residual turnover in data set [1] (setting [12]) worked out at 65%.

B11: 45 (protein)
chain: B1 chain with S268G, S270E, T315R, K345V
modifications: mutant HPPD polypeptide
B11: the Residual activity in data set [1] (setting [11]) is listed as 39%. Also, the Residual turnover in data set [1] (setting [12]) was determined as 68%.

B12: 17 (protein)
chain: B1 chain with S268G, S270E, K345V
modifications: mutant HPPD polypeptide
For B12, the Residual activity in data set [1] (setting [3]) is 43%; in data set [1] (setting [5]) it was 90%; in data set [1] (setting [7]) it was “n.i. (no inhibition was observed under the given conditions)”; in data set [1] (setting [9]) it was 85%; in data set [1] (setting [11]), 29%. The Residual turnover was 68% in data set [1] (setting [4]); 90% in data set [1] (setting [6]); 95% in data set [1] (setting [8]); 90% in data set [1] (setting [10]); 54% in data set [1] (setting [12]).

B13: 50 (protein)
chain: B1 chain with S268G, S270E, D331P, K345V
modifications: mutant HPPD polypeptide
Consider B13, for which the Residual activity in data set [1] (setting [11]) came to 46%. In addition, the Residual turnover in data set [1] (setting [12]) is 80%.
